Reference: patent publication US20160168234A1 (published 2016)
Ends that are not written are not given here.

What was measured:
Assay in all cases: ELISA on biotinylated peptides of the alanine library on streptavidin plates
[1] = target: T1, peptide A16 of the second library (Aβ12-20 with aa 16 changed to alanine) (also: biotinylated, position not given here)
T1 peptide: VHHQALVFF
From the text: (§1) One library comprised a total of 33 biotinylated peptides covering the complete amino acid (aa) sequence of Aβ1-42 (produced by Mimotopes and purchased from ANAWA Trading SA), the second library contains biotinylated peptides using peptide 12 (aa12-20 of Aβ) from the first peptide library and substituting each as in the sequence by an alanine (see table 3 below), and the third library contains biotinylated peptides 13, 14, or 15 (aa 13-21, 14-22 or 15-23 of Aβ) and substituting in each case the last amino acids to an alanine or to a glycine for as 21 which is already an alanine (see table 4 below). A biotinylated complete Aβ1-42 peptide was used as positive control (Bachem). Epitope mapping was done according to the manufacturer's (Mimotopes) instructions. Briefly, Streptavidin coated plates (NUNC) were blocked with 0.1% BSA in PBS overnight at 4° C. After washing with PBS-0.05% Tween 20, plates were coated for 1 hour at RT with the different peptides from the library, diluted in 0.1% BSA, 0.1% Sodium Azide in PBS to a final concentration of 10 μM. […] Plates were washed again and incubated with alkaline phosphatase conjugated goat anti human IgG for 1 h at RT. After final washing, plates were incubated with phosphatase substrate (pNPP) and read at 405 nm using an ELISA plate reader.

[2] = target: T2, peptide A17 of the second library (Aβ12-20 with aa 17 changed to alanine) (also: biotinylated, position not given here)
T2 peptide: VHHQKAVFF
From the text: as §1

[3] = target: T3, peptide A20 of the second library (Aβ12-20 with aa 20 changed to alanine) (also: biotinylated, position not given here)
T3 peptide: VHHQKLVFA
From the text: as §1

[4] = target: T4, peptide A19 of the second library (Aβ12-20 with aa 19 changed to alanine) (also: biotinylated, position not given here)
T4 peptide: VHHQKLVAF
From the text: as §1

Measured: binding result

B1: humanized anti-human amyloid beta monoclonal antibody hC2 (antibody, human IgG4 S228P, kappa)
heavy: not shown
light: DIVMTQSPLSLPVTPGEPASISCRSSQSLVYSNGDTYLHWYLQKPGQSPQLLIYKVSNRFSGVPDRFSGSGSGTDFTLKISRVEAEDVGVYYCSQSTHVPWTFGQGTKVEIKRTVAAPSVFIFPPSDEQLKSGTASVVCLLNNFYPREAKVQWKVDNALQSGNSQESVTEQDSKDSTYSLSSTLTLSKADYEKHKVYACEVTHQGLSSPVTKSFNRGEC
notes: also called humanized antibody C2; humanized C2
no binding (tested: 200 ng/ml): [1] | [2] | [3] | [4]
